For assay [1], the target named is T1, huIL-17RA-FLAG-polyHis (human, UniProt Q96F46 33-320).
T1 construct: also called IL-17RA-FLAG-pHis; wild-type IL-17RA
Description: binning; IL-17RA held by bead mAb A.
Description: (§1) The method employed the Bio-Plex Workstation and software (BioRad, Hercules, Calif.), as well as reagents from Luminex® Corp. (Austin, Tex.). […] The mouse-anti-human IgG coating was evaluated and the beads quantified by FACS. Each bead code was separately incubated with 10 ul of anti-IL-17RA antibody for 1 hour at room temperature and then washed. The beads were pooled and then dispensed to a 96-well filter plate (Millipore, Billerica, Mass., product #MSBVN1250). […] The PE-tagged monovalent antibody will detect the presence of the second mAb added to the well, but not the first mAb captured by the monovalent mouse-anti-human IgG antibody. Beads were resuspended in 120u1 PBSAT and at least 100 events/bead code were collected on the Bio-Plex workstation as per the manufacturer's recommended protocol.

Assay [2] concerns the target T1, huIL-17RA-FLAG-polyHis. Description: binning; IL-17RA held by bead mAb B.
Description: as §1
The target in assay [3] is T1, huIL-17RA-FLAG-polyHis. Description: binning; IL-17RA held by bead mAb C.
Description: as §1
The target in assay [4] is T1, huIL-17RA-FLAG-polyHis. Description: binning; IL-17RA held by bead mAb D.
Description: as §1
Assay [5] concerns the target T1, huIL-17RA-FLAG-polyHis. As to the kind of experiment: binning; IL-17RA held by bead mAb E.
Description: as §1
The target of assay [6] is T1, huIL-17RA-FLAG-polyHis. Description: binning; IL-17RA held by bead mAb F.
For assay [7], the target named is T1, huIL-17RA-FLAG-polyHis. Description: binning; IL-17RA held by bead mAb H.
Description: as §1
Assay [8] addresses T1, huIL-17RA-FLAG-polyHis. Description: binning; IL-17RA held by bead mAb M.
Description: (§2) The method employed the Bio-Plex Workstation and software (BioRad, Hercules, Calif.), as well as reagents from Luminex® Corp. (Austin, Tex.). The manufacturers' basic protocols were followed except where noted below (see www.bio-rad.com and www.luminexcorp.com for details). […] The mouse-anti-human IgG coating was evaluated and the beads quantified by FACS. Each bead code was separately incubated with 10 ul of anti-IL-17RA antibody for 1 hour at room temperature and then washed. The beads were pooled and then dispensed to a 96-well filter plate (Millipore, Billerica, Mass., product #MSBVN1250). […] The PE-tagged monovalent antibody will detect the presence of the second mAb added to the well, but not the first mAb captured by the monovalent mouse-anti-human IgG antibody. Beads were resuspended in 120u1 PBSAT and at least 100 events/bead code were collected on the Bio-Plex workstation as per the manufacturer's recommended protocol.
Assay [9] has as its target T1, huIL-17RA-FLAG-polyHis. As to the kind of experiment: binning; IL-17RA held by bead mAb P.
For assay [10], the target named is T1, huIL-17RA-FLAG-polyHis. Description: binning; IL-17RA held by bead mAb G.
Description: as §1
Assay [11] addresses T1, huIL-17RA-FLAG-polyHis. As to the kind of experiment: binning; IL-17RA held by bead mAb I.
For assay [12], the target named is T1, huIL-17RA-FLAG-polyHis. As to the kind of experiment: binning; IL-17RA held by bead mAb J.
Description: as §2
Assay [13] concerns the target T1, huIL-17RA-FLAG-polyHis. As to the kind of experiment: binning; IL-17RA held by bead mAb K.
In assay [14] the target is T1, huIL-17RA-FLAG-polyHis. Description: binning; IL-17RA held by bead mAb L.
For assay [15], the target named is T1, huIL-17RA-FLAG-polyHis. Description: binning; IL-17RA held by bead mAb N.
Description: as §2
For assay [16], the target named is T1, huIL-17RA-FLAG-polyHis. Description: binning; IL-17RA held by bead mAb O.
For assay [17], the target named is T1, huIL-17RA-FLAG-polyHis. Description: binning; IL-17RA held by bead mAb Q.
Description: as §1
The target in assay [18] is T1, huIL-17RA-FLAG-polyHis. As to the kind of experiment: binning; IL-17RA held by bead mAb R.

B1: AMH7/AML7 (antibody, IgG2, V domains shown)
VH: QVQLVQSGAEVKKPGASVKVSCKASGYTLTRYGISWVRQAPGQGLEWMGWISAYNGNTNYAQKLQGRVTMTTDTSTSTAYMELRSLRSDDTAVYYCARRDYDILTGYYNGFDPWGQGTLVTVSS
VL: DIQMTQSPSSLSASVGDRVTITCRASQGIRNDLGWYQQKPGKAPKRLIYAASSLQSGVPSRFSGSGSGTEFTLTISSLQPEDFATYYCLQHKSYPLTFGGGTKVEIK
notes: human mAb from IgG2 XenoMouse mice; also called AM-7; antibody D
In the case of B1, the “normalized MFI” value in the assay with huIL-17RA-FLAG-polyHis [1] is -233; with huIL-17RA-FLAG-polyHis [2] it was 684; with huIL-17RA-FLAG-polyHis [3], 217; in the assay with huIL-17RA-FLAG-polyHis [4], 207; in the assay with huIL-17RA-FLAG-polyHis [5], 192; with huIL-17RA-FLAG-polyHis [6] it was 269. Also, the “normalized MFI” value with huIL-17RA-FLAG-polyHis [7] came out at 3180; in the assay with huIL-17RA-FLAG-polyHis [8] it was 2980; with huIL-17RA-FLAG-polyHis [9], 5640; with huIL-17RA-FLAG-polyHis [10] it was 318; in the assay with huIL-17RA-FLAG-polyHis [11], 6650; with huIL-17RA-FLAG-polyHis [12], 3640. For the same molecule, the “normalized MFI” value is 8680 in the assay with huIL-17RA-FLAG-polyHis [13]; 4260 with huIL-17RA-FLAG-polyHis [14]; 3840 with huIL-17RA-FLAG-polyHis [15]; 5540 with huIL-17RA-FLAG-polyHis [16]; 4690 in the assay with huIL-17RA-FLAG-polyHis [17]; 3550 in the assay with huIL-17RA-FLAG-polyHis [18].

B2: AMH6/AML6 (antibody, IgG2, V domains shown)
VH: QVQLVQSGAEVKKPGASVKVSCKASGYTLTRYGISWVRQAPGQGLEWMGWISAYNGNTNYAQKLQGRVTMTTDTSTSTAYMELRSLRSDDTAVYYCARRDYDILTGYYNGFDPWGQGTLVTVSS
VL: DIQMTQSPSSLSASVGDRVTITCRASQGIRNDLGWYQQKPGKAPKRLIYAASSLQSGVPSRFSGSGSGTEFTLTISSLQPEDFATYYCLQHKSYPLTFGGGTKVEIK
notes: human mAb from IgG2 XenoMouse mice; also called AM-6; antibody E
For B2, the “normalized MFI” value with huIL-17RA-FLAG-polyHis [1] is -70.5; with huIL-17RA-FLAG-polyHis [2], 447; in the assay with huIL-17RA-FLAG-polyHis [3] it was 173; with huIL-17RA-FLAG-polyHis [4], 168; with huIL-17RA-FLAG-polyHis [5], 130; in the assay with huIL-17RA-FLAG-polyHis [6], 152. Besides, the “normalized MFI” value with huIL-17RA-FLAG-polyHis [7] was 2540; in the assay with huIL-17RA-FLAG-polyHis [8] it was 1770; with huIL-17RA-FLAG-polyHis [9] it was 3530; with huIL-17RA-FLAG-polyHis [10], 334; with huIL-17RA-FLAG-polyHis [11], 4330; with huIL-17RA-FLAG-polyHis [12], 2420. Also, the “normalized MFI” value was determined as 5600 with huIL-17RA-FLAG-polyHis [13]; 2660 with huIL-17RA-FLAG-polyHis [14]; 2410 with huIL-17RA-FLAG-polyHis [15]; 3310 in the assay with huIL-17RA-FLAG-polyHis [16]; 2390 in the assay with huIL-17RA-FLAG-polyHis [17]; 1660 in the assay with huIL-17RA-FLAG-polyHis [18].

B3: AMH8/AML8 (antibody, IgG2, V domains shown)
VH: QVQLVQSGAEVKKPGASVKVSCKASGNTFTGYGISWVRQAPGQGLEWMGWISAYNGNTNYAQNLQGRVTMTTDTSTSTAYMELRSLRSDDTAVYYCARRDYDILTGYYNGFDPWGQGTLVTVSS
VL: DIQMTQSPSSLSASVGDRVTITCRASQGIRNDLGWYQQKPGKAPKRLIYAASSLQSGVPSRFSGSGSGTEFTLTISSLQPEDFATYYCLQHKSYPLTFGGGTKVEIK
notes: human mAb from IgG2 XenoMouse mice; also called AM-8; antibody C
Consider B3, for which the “normalized MFI” value with huIL-17RA-FLAG-polyHis [1] was -178; in the assay with huIL-17RA-FLAG-polyHis [2], 816; with huIL-17RA-FLAG-polyHis [3], 260; in the assay with huIL-17RA-FLAG-polyHis [4] it was 264; with huIL-17RA-FLAG-polyHis [5], 163; in the assay with huIL-17RA-FLAG-polyHis [6], 239. For the same molecule, the “normalized MFI” value is 2950 with huIL-17RA-FLAG-polyHis [7]; 2880 in the assay with huIL-17RA-FLAG-polyHis [8]; 5960 in the assay with huIL-17RA-FLAG-polyHis [9]; 346 with huIL-17RA-FLAG-polyHis [10]; 6720 in the assay with huIL-17RA-FLAG-polyHis [11]; 3590 with huIL-17RA-FLAG-polyHis [12]. Besides, the “normalized MFI” value is 8220 with huIL-17RA-FLAG-polyHis [13]; 3540 with huIL-17RA-FLAG-polyHis [14]; 3630 with huIL-17RA-FLAG-polyHis [15]; 5520 with huIL-17RA-FLAG-polyHis [16]; 5500 with huIL-17RA-FLAG-polyHis [17]; 3950 with huIL-17RA-FLAG-polyHis [18].

For the origin of these results see patent US20120251547A1 (Amgen, published 2012).
